The source of these data is paper PMC6954417.

In data set [1] the target is RAD52 (human) (UniProt P43351).
Data set [2] concerns the target RAD52 (human) (UniProt P43351). The source holds these as a separate data set.
In data set [3] the target is RAD52 (human) (UniProt P43351). This is another data set of the same source.
Data set [4] deals with T1, His6-RAD52 (Homo sapiens) (UniProt P43351).
T1 sequence: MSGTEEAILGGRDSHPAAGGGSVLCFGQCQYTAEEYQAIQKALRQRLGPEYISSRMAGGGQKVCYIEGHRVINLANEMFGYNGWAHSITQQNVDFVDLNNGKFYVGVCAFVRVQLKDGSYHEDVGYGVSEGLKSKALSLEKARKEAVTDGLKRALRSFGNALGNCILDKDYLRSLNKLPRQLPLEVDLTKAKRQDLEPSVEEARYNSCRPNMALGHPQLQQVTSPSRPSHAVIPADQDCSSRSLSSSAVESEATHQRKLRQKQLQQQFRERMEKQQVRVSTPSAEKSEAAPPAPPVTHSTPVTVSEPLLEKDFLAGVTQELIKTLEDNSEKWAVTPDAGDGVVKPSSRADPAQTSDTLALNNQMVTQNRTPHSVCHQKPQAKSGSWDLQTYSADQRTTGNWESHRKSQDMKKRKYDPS
The data set can be described thus: competition (FRET). The settings on record: 8 nM RAD52 on 1 nM Cy3-dT30-Cy5; ssDNA EMSA: 30 mM Tris-acetate pH 7.5, 1 mM DTT, RT, 0.1% glutaraldehyde; FRET: same buffer + 0.1 mg/ml BSA, 25 C; dsDNA EMSA: 30 mM KPi pH 7.4, 1 mM DTT …; scale: nM base pairs for nearly complete ssDNA release. Background: In EMSA bound probe runs differently from free probe, usually more slowly.

The target in data set [5] is His6-RAD52;DSS1 (Homo sapiens;Homo sapiens) (UniProt P43351+P60896). The data set can be described thus: competition (FRET). The settings on record: 8 nM RAD52-DSS1 on 1 nM Cy3-dT30-Cy5; ssDNA EMSA: 30 mM Tris-acetate pH 7.5, 1 mM DTT, RT, 0.1% glutaraldehyde; FRET: same buffer + 0.1 mg/ml BSA, 25 C; dsDNA EMSA: 30 mM KPi pH 7.4, 1 mM DTT …; scale: nM base pairs for almost complete ssDNA release.
Sequence of His6-RAD52;DSS1 (Homo sapiens;Homo sapiens) (P60896 whole entry, one chain of several): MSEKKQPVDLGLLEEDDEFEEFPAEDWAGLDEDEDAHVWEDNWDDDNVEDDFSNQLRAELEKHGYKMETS

Substance DSS1 (natural protein) gave an FRET-based annealing of complementary 28-mers, 8 nM RAD52 with 40 nM DSS1, no RPA: initial rate (RAD52 alone 5.2 bp/s) with RAD52 (human) [1] of 17.5 bp/s. The D-loop formation with a 90-mer ssDNA and supercoiled plasmid, RAD52 or RAD52-DSS1 (1:1) at 150-3200 nM: yield (10% for RAD52 alone at 800 nM) with RAD52 (human) [2] was 20%. Further, the gel-based single-strand annealing of 3'-overhang substrates, increasing RAD52 or pre-formed RAD52-DSS1 (1:1): maximum yield (optimum at 120 nM complex against 480 nM RAD52 alone) with RAD52 (human) [3] stood at 65%.

Turning to PhiX174 RF I DNA, ApaLI-linearized, the binding signal in data set [4] turned out to be 200; in data set [5], 50.
